The record followed here is PMC5425256 (Developmental Cell, 2017).

The target in the experiment is recombinant GST-Pak6 (from pMW-GST-Pak6, E. coli) (human, UniProt Q9NQU5 1-681). Briefly: pull-down. Conditions: both partners purified.
Chain of recombinant GST-Pak6 (from pMW-GST-Pak6, E. coli) (Q9NQU5 whole entry): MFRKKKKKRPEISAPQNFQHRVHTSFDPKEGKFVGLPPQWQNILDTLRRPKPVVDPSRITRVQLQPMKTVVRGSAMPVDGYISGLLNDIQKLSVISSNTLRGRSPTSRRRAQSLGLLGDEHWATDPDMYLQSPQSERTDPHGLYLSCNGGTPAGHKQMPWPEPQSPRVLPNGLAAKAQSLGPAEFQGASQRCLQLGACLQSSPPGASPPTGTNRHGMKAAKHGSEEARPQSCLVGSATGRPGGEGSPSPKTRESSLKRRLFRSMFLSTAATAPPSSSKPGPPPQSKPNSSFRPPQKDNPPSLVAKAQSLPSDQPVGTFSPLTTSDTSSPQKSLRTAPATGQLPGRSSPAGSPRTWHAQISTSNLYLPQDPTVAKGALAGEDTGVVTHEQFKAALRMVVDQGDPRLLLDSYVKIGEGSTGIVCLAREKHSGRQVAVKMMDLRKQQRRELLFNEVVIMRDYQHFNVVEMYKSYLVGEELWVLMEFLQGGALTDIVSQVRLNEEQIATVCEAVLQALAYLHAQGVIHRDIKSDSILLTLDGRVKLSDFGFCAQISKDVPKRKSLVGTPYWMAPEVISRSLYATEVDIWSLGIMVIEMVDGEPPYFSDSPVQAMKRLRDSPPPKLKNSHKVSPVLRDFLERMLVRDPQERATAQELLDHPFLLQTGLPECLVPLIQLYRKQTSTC

B1: recombinant His-RhoD loaded with GTPγS (natural protein, mouse, UniProt P97348 1-210, looked up)
chain: MNASQVAGEEAPQSGHSVKVVLVGDGGCGKTSLMMVFAKGAFPESYSPTVFERYNATLQMKGKPVHLQIWDTAGQDDYDRLRPLFYPDANVLLLCFDVTNPNSFDNVSNRWYPEVTHFCKGVPIIVVGCKIDLRKDKVLVNNLRKKRLEPVTYHRGHDMARSVGAVAYLECSARLHDNVEAVFQEAAEVALSSRRHNFWRRITQNCCLAT
Consider B1, for which the binding result is “binds”.
